From paper PMC11191771 come the findings set out here.

One series concerns the target PRC2.2 EZH2 del353-362 (human, UniProt Q15910-2;Q15022;O75530;Q09028;Q6ZN18;Q92833 …, internal_change). Briefly: EMSA; no obvious reduction vs WT; EMSA: 50 mM Tris-HCl pH 7.5 (25 C), 100 mM KCl, 2.5 mM MgCl2, 0.1 mM ZnCl2, 2 mM 2-mercaptoethanol?; FP: 50 mM Tris pH 7.5, 10 or 25 mM KCl, 2.5 mM MgCl2, 0.1 mM ZnCl2, 0.1 mg/mL BSA?, room temperature, 5 nM RNA or DNA. The following applies: protein: recombinant; tags: as P1; copies: 1;1;1;1;1;1; label: 5' 32P (EMSA); single G-quadruplex. On the technique in general: A gel shift assay detects complexes by their altered migration in electrophoresis.

The target of series [1] is PRC2.2 six-subunit complex WT (EZH2, SUZ12, EED, RBAP48, AEBP2, JARID2 119-450) (human, UniProt Q15910-2;Q15022;O75530;Q09028;Q6ZN18;Q92833 …). Put plainly: EMSA; 100 mM KCl; EMSA: 50 mM Tris-HCl pH 7.5 (25 C), 100 mM KCl, 2.5 mM MgCl2, 0.1 mM ZnCl2, 2 mM 2-mercaptoethanol?; FP: 50 mM Tris pH 7.5, 10 or 25 mM KCl, 2.5 mM MgCl2, 0.1 mM ZnCl2, 0.1 mg/mL BSA?, room temperature, 5 nM RNA or DNA. The following applies: protein: recombinant, tags: His-EZH2, Strep-GFP-AEBP2, Strep-GFP-JARID2, TEV protease treated, copies: 1;1;1;1;1;1, label: 5' 32P (EMSA).

In series [2] the target is PRC2.2 EZH2 R566A K568A Q575A (human, UniProt Q15910-2;Q15022;O75530;Q09028;Q6ZN18;Q92833 …, R566A;K568A;Q575A). Briefly: EMSA; binding not affected vs WT; EMSA: 50 mM Tris-HCl pH 7.5 (25 C), 100 mM KCl, 2.5 mM MgCl2, 0.1 mM ZnCl2, 2 mM 2-mercaptoethanol?; FP: 50 mM Tris pH 7.5, 10 or 25 mM KCl, 2.5 mM MgCl2, 0.1 mM ZnCl2, 0.1 mg/mL BSA?, room temperature, 5 nM RNA or DNA. The following applies: protein: recombinant; tags: as P1; copies: 1;1;1;1;1;1; label: 5' 32P (EMSA); single G-quadruplex.

The target in series [3] is T1, PRC2.2 EZH2 R566Y K568Y Q575Y (3Y) (human, UniProt Q15910-2;Q15022;O75530;Q09028;Q6ZN18;Q92833 …, R566Y;K568Y;Q575Y). Put plainly: EMSA; higher affinity than WT; EMSA: 50 mM Tris-HCl pH 7.5 (25 C), 100 mM KCl, 2.5 mM MgCl2, 0.1 mM ZnCl2, 2 mM 2-mercaptoethanol?; FP: 50 mM Tris pH 7.5, 10 or 25 mM KCl, 2.5 mM MgCl2, 0.1 mM ZnCl2, 0.1 mg/mL BSA?, room temperature, 5 nM RNA or DNA. Particulars: protein: recombinant; tags: as P1; copies: 1;1;1;1;1;1; label: 5' 32P (EMSA); single G-quadruplex.

The target in series [4] is T1, PRC2.2 EZH2 R566Y K568Y Q575Y (3Y). Briefly: FP; higher affinity than WT; Kd only in figure; EMSA: 50 mM Tris-HCl pH 7.5 (25 C), 100 mM KCl, 2.5 mM MgCl2, 0.1 mM ZnCl2, 2 mM 2-mercaptoethanol?; FP: 50 mM Tris pH 7.5, 10 or 25 mM KCl, 2.5 mM MgCl2, 0.1 mM ZnCl2, 0.1 mg/mL BSA?, room temperature, 5 nM RNA or DNA. The following applies: protein: recombinant; tags: as P1; copies: 1;1;1;1;1;1; label: fluorescent label; single G-quadruplex.

What is called Kd is the equilibrium constant for the complex coming apart. In the case of CAAAAACAAAAACAAAAACAAAAACAAAAAGGGAAGGGAAGGGAAGGGAA (structured_RNA) [1G4 RNA, no biotin], the binding result (with PRC2.2 EZH2 del353-362; in series [2]; in series [3]) was “binds” throughout. Further, the Kd in series [1] (single G-quadruplex) was 120 nM.
On to CAAAAACAAAAACAAAAACAAAAACAAAAAGGGAAGGGAAGGGAAGGGAA (structured_RNA) [1G4 RNA (FP)], for which the binding result in series [4] is given as “binds”.

B1: 2G4 RNA (structured_RNA)
RNA: CAAAAACAAAAACAAAAACAAAAACAAAAAGGGAAGGGAAGGGAAGGGAAACAACAACAACAACAGGGAAGGGAAGGGAAGGGAA
Consider B1, for which, in series [1] (two G-quadruplexes), the Kd stood at 32 nM.
